Source: PMC4670726 (2015)

B1: JIP1, full length, YFP fragment F1 fusion (BiFC) [not stated] / F2-JNK1 (K55R) (BiFC) [human] (parent complex)
chain 1: MAERESGGLGGGAASPPAASPFLGLHIASPPNFRLTHDISLEEFEDEDLSEITDECGISLQCKDTLSLRPPRAGLLSAGGGGAGSRLQAEMLQMDLIDATGDTPGAEDDEEDDDEERAARRPGAGPPKAESGQEPASRGQGQSQGQSQGPGSGDTYRPKRPTTLNLFPQVPRSQDTLNNNSLGKKHSWQDRVSRSSSPLKTGEQTPPHEHICLSDELPPQSGPAPTTDRGTSTDSPCRRSTATQMAPPGGPPAAPPGGRGHSHRDRIHYQADVRLEATEEIYLTPVQRPPDAAEPTSAFLPPTESRMSVSSDPDPAAYPSTAGRPHPSISEEEEGFDCLSSPERAEPPGGGWRGSLGEPPPPPRASLSSDTSALSYDSVKYTLVVDEHAQLELVSLRPCFGDYSDESDSATVYDNCASVSSPYESAIGEEYEEAPRPQPPACLSEDSTPDEPDVHFSKKFLNVFMSGRSRSSSAESFGLFSCIINGEEQEQTHRAIFRFVPRHEDELELEVDDPLLVELQAEDYWYEAYNMRTGARGVFPAYYAIEVTKEPEHMAALAKNSDWVDQFRVKFLGSVQVPYHKGNDVLCAAMQKIATTRRLTVHFNPPSSCVLEISVRGVKIGVKADDSQEAKGNKCSHFFQLKNISFCGYHPKNNKYFGFITKHPADHRFACHVFVSEDSTKALAESVGRAFQQFYKQFVEYTCPTEDIYLE
chain 2: MSRSKRDNNFYSVEIGDSTFTVLKRYQNLKPIGSGAQGIVCAAYDAILERNVAIRKLSRPFQNQTHAKRAYRELVLMKCVNHKNIIGLLNVFTPQKSLEEFQDVYIVMELMDANLCQVIQMELDHERMSYLLYQMLCGIKHLHSAGIIHRDLKPSNIVVKSDCTLKILDFGLARTAGTSFMMTPYVVTRYYRAPEVILGMGYKENVDLWSVGCIMGEMVCHKILFPGRDYIDQWNKVIEQLGTPCPEFMKKLQPTVRTYVENRPKYAGYSFEKLFPDVLFPADSEHNKLKASQARDLLSKMLVIDASKRISVDEALQHPYINVWYDPSEAEAPPPKIPDKQLDEREHTIEEWKELIYKEVMDLEERTKNGVIRGQPSPLGAAVINGSQHPSSSSSVNDVSSMSTDPTLASDTDSSLEAAAGPLGCCR

Variants of: B1
Assay: BiFC (bimolecular fragment complementation), fluorescence measurement on co-transfected HEK293 cell populations; live HEK293 cells, transient co-transfection, N = 6; read off a plot

| Variant | response [arbitrary units] |
| --- | --- |
| chain 1 R160A, chain 1 P161A, chain 1 L164A, chain 1 L166A | ~1700 |
